Laboratory results reported in patent publication US20040091487A1.

How the values were obtained:
Assay in all cases: cell-based or functional assay
[1] = molecular target: HIV-1 IN within Gag-Pol (Gag-Pol polyprotein encoded by pCMVDR8.2) (HIV-1)
[2] = molecular target: HIV-1 IN H12Y within Gag-Pol (pCMV-H12Y) (HIV-1)
[3] = molecular target: HIV-1 IN within Gag-Pol of the molecular clone HIV-1R3B (HIV-1)

| Substance | decrease in the viral titers as compared to the control [1] [fold] | inhibition of p24 production [1] [fold] | % inhibition [1] [%] | P24 of culture supernatants [1] [ng/mL] | decrease in the level of H12Y virion associated p24 production [2] [fold] | % inhibition [3] [%] | p24 of culture supernatants [3] [ng/mL] |
| --- | --- | --- | --- | --- | --- | --- | --- |
| HA-E3 (from UniProt Q12824 183-294) | 2 | 2 | – | – | – | – | – |
| HA-INI1 aa 141-385 (clone 20.2) (from UniProt Q12824 141-385) | – | – | 69 | 35.4 | – | – | – |
| HA-S6 (HA-INI1 aa 183-294) (from UniProt Q12824 183-294) | – | 80000 | 100 | 0 | 10 | > 99.7 | 0.69 |
| HA-INI1 aa 1-245 (clone 27B) (from UniProt Q12824 1-245) | – | – | 16 | 95.6 | – | – | – |
